Protein stability index data for 94 variants are collected here from the supplement of paper PMC10567573.

B1: TMEM175 (parent)
chain: ALLHQAETLQPSVWFGGREHVLMF
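Further: lentivirally expressed fusions sorted by FACS into six bins by GFP to DsRed ratio, PSI derived from sequencing read proportions per bin multiplied by bin number.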

Variants of B1 are the subject of this data set. Put plainly: protein stability index of a GFP-peptide fusion (GPS, HEK-293T) (PSI 1-6); higher = more stable. The settings on record: c terminus: a fixed tail appended.
For the variant ALLHQAETLQPSVWFMGREHVLMF [G16M], the protein stability index came out at 2.69.
As for ALLHQAETLQPSVWFLGREHVLMF [G16L], the figure is 2.28; as for ALLHQAETLQPSVWFCGREHVLMF [G16C], 2.98.
ALLHQAETLQPSVWFGGGEHVLMF [R18G]: the protein stability index came out at 2.08.
As to ALLHQAETLQPSVWFGGPEHVLMF [R18P], the protein stability index came out at 1.71.
As for ALLHQAETLQPSVWFGGHEHVLMF [R18H], the figure is 2.17; as for ALLHQAETLQPSVWFGGMEHVLMF [R18M], 2.03.
ALLHQAETLQPSVWFGGWEHVLMF [R18W]: the protein stability index was 3.12.
For the variant ALLHQAETLQPSVWFGGEEHVLMF [R18E], the protein stability index turned out to be 1.76.
The same measure for ALLFQAETLQPSVWFGGREHVLMF [H4F]: 3.14; for ALLHQAETLQPSVWHGGREHVLMF [F15H]: 2.12.
ALLHQAETLQPSVWCGGREHVLMF [F15C]: the protein stability index amounted to 2.5.
As for ALLHQAETLQPSVWQGGREHVLMF [F15Q], the figure is 1.27; as for ALLHQAERLQPSVWFGGREHVLMF [T8R], 1.26.
As for ALLHQAEELQPSVWFGGREHVLMF [T8E], the figure is 2.03; as for ALLHQAEHLQPSVWFGGREHVLMF [T8H], 2.95; as for ALLHQAELLQPSVWFGGREHVLMF [T8L], 4.17.
ALLHQAECLQPSVWFGGREHVLMF [T8C]: the protein stability index is 2.94.
The same measure for ALLHQAEVLQPSVWFGGREHVLMF [T8V]: 1.01.
ALLHQAETLQPSVDFGGREHVLMF [W14D]: the protein stability index was determined as 1.74.
The same measure for ALLHQAETLQPSVHFGGREHVLMF [W14H]: 2.31; for ALLHQAETLQPSVLFGGREHVLMF [W14L]: 1.73.
With ALLHQAETLQPSVGFGGREHVLMF [W14G], the protein stability index was found to be 2.64.
Turning to ALLHQAETLQPSVIFGGREHVLMF [W14I], the protein stability index was determined as 2.22.
The same measure for ALLHQAETLQPSVEFGGREHVLMF [W14E]: 1.38; for ALLHQAETLQPSVRFGGREHVLMF [W14R]: 2.65.
Consider AALHQAETLQPSVWFGGREHVLMF [L2A], for which the protein stability index came out at 2.96.
As for APLHQAETLQPSVWFGGREHVLMF [L2P], the protein stability index was determined as 1.87.
For AVLHQAETLQPSVWFGGREHVLMF [L2V], the protein stability index came out at 1.3.
The same measure for ALLHQAETLQPSMWFGGREHVLMF [V13M]: 2.46; for ALLHQAETLQPSCWFGGREHVLMF [V13C]: 3.13; for ALLHQAETLQPSQWFGGREHVLMF [V13Q]: 3.1.
As for ALLHHAETLQPSVWFGGREHVLMF [Q5H], the protein stability index was found to be 2.37.
For ALLHCAETLQPSVWFGGREHVLMF [Q5C], the protein stability index was found to be 1.99.
As to ALLHDAETLQPSVWFGGREHVLMF [Q5D], the protein stability index is 2.03.
Take ALLHTAETLQPSVWFGGREHVLMF [Q5T]: the protein stability index is 2.94.
As for ALLHMAETLQPSVWFGGREHVLMF [Q5M], the figure is 3.42; as for ALLHQAETLQPSVWFGGREHVKMF [L22K], 1.94.
Regarding ALLHQAETLQPSVWFGGREHVNMF [L22N], the protein stability index was 2.19.
As for ALLHQAETLQPSVWFGGREHVCMF [L22C], the figure is 3.13; as for ALLHQAETLQPSVWFGGRENVLMF [H20N], 2.48; as for ALLHQAETLQPSVWFGGREMVLMF [H20M], 3.07.
As for ALLHQAETLQPSVWFGGREQVLMF [H20Q], the figure is 1.44.
For ALLHQAETLRPSVWFGGREHVLMF [Q10R], the protein stability index stood at 2.36.
As for ALLHQAETLVPSVWFGGREHVLMF [Q10V], the figure is 1.06.
Take ALLHQAETLSPSVWFGGREHVLMF [Q10S]: the protein stability index amounted to 2.2.
As for ALLHQAETLHPSVWFGGREHVLMF [Q10H], the figure is 1.99; as for ALLHQAETLNPSVWFGGREHVLMF [Q10N], 3.13; as for ALLHQAETLQPSVWFGGRFHVLMF [E19F], 1.97.
As to ALLHQAETLQPSVWFGGRHHVLMF [E19H], the protein stability index turned out to be 2.74.
The same measure for ALLHQAETLQPSVWFGGREHPLMF [V21P]: 2.11; for ALLHQAETLQPSVWFGGREHWLMF [V21W]: 1.57; for ALLHQAETLQPSVWFGGREHHLMF [V21H]: 2.89.
For ALLHQAETLQPSVWFGGREHLLMF [V21L], the protein stability index was 2.41.
ALLHQAETLQPSVWFGGREHCLMF [V21C]: the protein stability index is 2.73.
The same measure for ALAHQAETLQPSVWFGGREHVLMF [L3A]: 1.76; for ALDHQAETLQPSVWFGGREHVLMF [L3D]: 1.87.
The same measure for ALCHQAETLQPSVWFGGREHVLMF [L3C]: 2.26; for ALVHQAETLQPSVWFGGREHVLMF [L3V]: 1.31.
As for ALRHQAETLQPSVWFGGREHVLMF [L3R], the figure is 1.62.
For ALLHQAETLQPSVWFGGREHVLML [F24L], the protein stability index amounted to 2.21.
As for ALLHQAETLQPSVWFGGREHVLME [F24E], the figure is 2.15.
As for ALLHQAETLQPSVWFGGREHVLMH [F24H], the figure is 2.15.
As for ALLHQAETLQPWVWFGGREHVLMF [S12W], the figure is 2.82.
On to ALLHQAETLQPQVWFGGREHVLMF [S12Q], for which the protein stability index came out at 1.82.
The same measure for ALLHQAETLQPTVWFGGREHVLMF [S12T]: 2.65; for ALLHQAETLQPVVWFGGREHVLMF [S12V]: 3.21; for ALLHQAETLQPIVWFGGREHVLMF [S12I]: 3.85.
For ALLHQAETLQPPVWFGGREHVLMF [S12P], the protein stability index turned out to be 4.3.
For the variant ALLHQAMTLQPSVWFGGREHVLMF [E7M], the protein stability index turned out to be 3.19.
ALLHQANTLQPSVWFGGREHVLMF [E7N]: the protein stability index is 1.88.
The same measure for ALLHQASTLQPSVWFGGREHVLMF [E7S]: 2.22; for ALLHQAGTLQPSVWFGGREHVLMF [E7G]: 3.88.
As for ALLHQAETLQLSVWFGGREHVLMF [P11L], the figure is 1.82; as for ALLHQTETLQPSVWFGGREHVLMF [A6T], 1.83; as for ALLHQYETLQPSVWFGGREHVLMF [A6Y], 2.91.
Regarding ALLHQCETLQPSVWFGGREHVLMF [A6C], the protein stability index was 3.75.
Turning to GLLHQAETLQPSVWFGGREHVLMF [A1G], the protein stability index was determined as 2.95.
Regarding ELLHQAETLQPSVWFGGREHVLMF [A1E], the protein stability index is 1.02.
With HLLHQAETLQPSVWFGGREHVLMF [A1H], the protein stability index is 2.14.
Regarding DLLHQAETLQPSVWFGGREHVLMF [A1D], the protein stability index was 1.48.
The same measure for PLLHQAETLQPSVWFGGREHVLMF [A1P]: 1.69.
The same measure for ALLHQAETLQPSVWFGGREHVLDF [M23D]: 1.04; for ALLHQAETLQPSVWFGGREHVLGF [M23G]: 3.51; for ALLHQAETLQPSVWFGGREHVLVF [M23V]: 1.27.
Turning to ALLHQAETEQPSVWFGGREHVLMF [L9E], the protein stability index is 1.16.
As for ALLHQAETNQPSVWFGGREHVLMF [L9N], the figure is 1.97; as for ALLHQAETWQPSVWFGGREHVLMF [L9W], 1.7; as for ALLHQAETQQPSVWFGGREHVLMF [L9Q], 3.27.
As for ALLHQAETCQPSVWFGGREHVLMF [L9C], the figure is 3.64; as for ALLHQAETRQPSVWFGGREHVLMF [L9R], 2.19.
The same measure for ALLHQAETLQPSVWFGTREHVLMF [G17T]: 2.68.
In the case of ALLHQAETLQPSVWFGHREHVLMF [G17H], the protein stability index was determined as 2.45.
As for ALLHQAETLQPSVWFGDREHVLMF [G17D], the figure is 1.27.
